Experimental data as given in patent publication US20240117038A1 (Ablynx, published 2024).
Positions count from the first letter of the chain named. Names may count otherwise.

T1: human CX3CR1 (human, UniProt P49238 1-355)
T1 construct: Overexpressed on CHO K1, Ba/F3 or HEK293T cells; also called huCX3CR1; hCX3CR1
T1 sequence: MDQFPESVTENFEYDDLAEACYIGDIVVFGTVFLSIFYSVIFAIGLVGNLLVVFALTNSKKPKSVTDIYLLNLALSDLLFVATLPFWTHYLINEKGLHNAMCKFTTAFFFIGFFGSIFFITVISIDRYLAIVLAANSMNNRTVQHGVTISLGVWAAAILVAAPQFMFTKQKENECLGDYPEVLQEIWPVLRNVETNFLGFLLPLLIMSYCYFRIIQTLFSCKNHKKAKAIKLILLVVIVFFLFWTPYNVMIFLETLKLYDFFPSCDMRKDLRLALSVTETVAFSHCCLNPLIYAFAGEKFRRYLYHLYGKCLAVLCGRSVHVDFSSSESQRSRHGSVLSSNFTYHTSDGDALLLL

T2: human CX3CR1 V249I/T280M (human, UniProt P49238 1-355)
T2 construct: Transiently transfected in HEK293T cells (pcDNA3.1); also called huCX3CR1 variant V249I and T280M
T2 chain: T1 sequence with V249I, T280M

T3: human CX3CR1 T280M (human, UniProt P49238 1-355)
T3 construct: Transiently transfected in HEK293T cells (pcDNA3.1); also called huCX3CR1 variant T280M (Rs3732378)
T3 sequence: T1 sequence with T280M

B1: A041600035 (VHH)
chain: DVQLVESGGGSVQPGGSLRLSCAASGSIFSSTAMAWYRQAPGKQRDLVAVISTVGITKYADSVKGRFTISRDNAKNTVYLQMNSLRPEDTALYYCTSDARRGWDTRYWGQGTLVTVSSGGGGSGGGSEVQLVESGGGSVQPGGSLRLSCAASGSIFSSTAMAWYRQAPGKQRDLVAVISTVGITKYADSVKGRFTISRDNAKNTVYLQMNSLRPEDTALYYCTSDARRGWDTRYWGQGTLVTVSSGGGGSGGGSEVQLVESGGGVVQPGGSLRLSCAASGFTFRSFGMSWVRQAPGKGPEWVSSISGSGSDTLYADSVKGRFTISRDNSKNTLYLQMNSLRPEDTALYYCTIGGSLSRSSQGTLVTVSSA
notes: Trivalent ISVD construct (two anti-CX3CR1 ISVDs, one anti-albumin ISVD), C-terminal alanine included in the entry; also called 54A12_SO (E1D)-9GS-54A12_SO-9GS-ALB23002-A
B2: A041600041 (VHH)
chain: B1 chain with Q171R, V177A, S179N, I183V, A226P
notes: Trivalent ISVD construct (two anti-CX3CR1 ISVDs, one anti-albumin ISVD), C-terminal alanine included in the entry; also called 54A12_SO (E1D)-9GS-66B02_SO-9GS-ALB23002-A
B3: A041600025 (VHH)
chain: DVQLVESGGGSVQPGGSLRLSCAASGSIFSSTAMAWYRQAPGKQRDLVAVISTVGITKYADSVKGRFTISRDNAKNTVYLQMNSLRPEDTALYYCTSDARRGWDTRYWGQGTLVTVSSGGGGSGGGSEVQLVESGGGVVQPGGSLRLSCAASGFTFRSFGMSWVRQAPGKGPEWVSSISGSGSDTLYADSVKGRFTISRDNSKNTLYLQMNSLRPEDTALYYCTIGGSLSRSSQGTLVTVSSGGGGSGGGSEVQLVESGGGSVQPGGSLRLSCAASGSIFSSTAMAWYRQAPGKQRDLVAVISTVGITKYADSVKGRFTISRDNAKNTVYLQMNSLRPEDTALYYCTSDARRGWDTRYWGQGTLVTVSSA
notes: Trivalent ISVD construct (two anti-CX3CR1 ISVDs, one anti-albumin ISVD), C-terminal alanine included in the entry; also called 54A12_SO (E1D)-9GS-ALB23002-9GS-54A12_SO-A
B4: A041600034 (VHH)
chain: B3 chain with Q295R, V301A, S303N, I307V, A350P
notes: Trivalent ISVD construct; also called 54A12_SO (E1D)-9GS-ALB23002-9GS-66B02_SO-A
B5: A041600085 (VHH)
chain: DVQLVESGGGLVQPGGSLRLSCAASGSIFSSTAMAWYRQAPGKRRDLVAAISTVGVTKYADSVKGRFTISRDNSKNTVYLQMNSLRPEDTAVYYCTSDPRRGWDTRYWGQGTLVTVSSGGGGSGGGSEVQLVESGGGVVQPGGSLRLSCAASGFTFRSFGMSWVRQAPGKGPEWVSSISGSGSDTLYADSVKGRFTISRDNSKNTLYLQMNSLRPEDTALYYCTIGGSLSRSSQGTLVTVSSGGGGSGGGSEVQLVESGGGLVQPGGSLRLSCAASGSIFSSTAMAWYRQAPGKRRDLVAAISTVGVTKYADSVKGRFTISRDNSKNTVYLQMNSLRPEDTAVYYCTSDPRRGWDTRYWGQGTLVTVSSA
notes: also called 307-9GS-ALB23002-9GS-307 (D1E)-A

biological target: T1, human CX3CR1; experiment: competition flow cytometry vs soluble huCX3CL1-AF647 on CHO K1 huCX3CR1 cells, 30 uM HSA

% inhibition [%]	IC50 [nM]	Binder
99	2.5	B1
97	2.7	B2
98	3.8	B3
95	4.5	B4
103	7.7	B5

Biological target: T2, human CX3CR1 V249I/T280M
Experiment: flow cytometry on transiently transfected HEK293T cells, human CX3CR1 V249I/T280M
Method: (§1) After washing, serial dilutions of multivalent ISVD construct (starting from 250 nM, 3-fold dilution, 11 points, diluted in assay buffer), were added and incubated for 4 hours at 4° C. Binding was performed in the presence of 30 uM HSA (Sigma-Aldrich, Cat. No. A8763). Plates were then washed 3 times and cells were incubated with an anti-VHH mouse antibody (3300-fold diluted in assay buffer) for 30 minutes at 4′° C. […] Plates were finally washed 3 times and cells were resuspended in PI (Miltenyi Biotec, Cat. No. 130-093-233, 1000-fold diluted in assay buffer). Cell suspensions were analyzed with iQue Screener PLUS (Intellicyt). EC50s were estimated by dose response modelling. Curves were fit using 4 parameter logistic regression in GraphPad (GraphPad Software Inc.). A purified anti-human CX3CR1 antibody [K0124E1] (BioLegend, Cat. No. 355701/355702) was used as positive control to detect CX3CR1 expression on the cell surface.
(§2) Two important SNPs are described in huCX3CR1, i.e. V2491 (Rs3732379) and T280M (Rs3732378), which might influence receptor activity and binding by the ISVD. […] Different combinations of these SNPs were introduced in human CX3CR1, and binding by 5 selected multivalent ISVD constructs was assessed with flow cytometry after transient transfection of the huCX3CR1 variants in HEK293T cells.
(§3) In short, the CX3CR1 constructs were cloned into pcDNA3.1 (ThermoFisher Scientific, Cat. No. V79020) and plasmid DNA was prepared from Escherichia coli TOP10 cells. HEK293T cells were seeded at a concentration of 1.5E06 cells per T75 flask and incubated overnight at 37° C. in DMEM medium (Gibco, Cat. No. 31966) supplemented with 10% FBS (Sigma. Cat. No. F7524). The medium was then replaced by Opti-MEM medium (Gibco, Cat. No. 31985). A mixture of 9 μg plasmid DNA, 27 μL Fugene 6 (Promega, Cat. No. E2691) in a final volume of 1 mL Opti-MEM was incubated for 15 minutes at room temperature and then added to the cells. After 3 hours incubation at 37° C., 10 mL of DMEM supplemented with 20% FBS was added, and incubation continued.

EC50 [nM]	Binder
0.27	B1
0.17	B3
0.09	B4

biological target: T3, human CX3CR1 T280M; experiment: flow cytometry on transiently transfected HEK293T cells, human CX3CR1 T280M
Method: as §1, §2, §3

EC50 [nM]	Binder
0.2	B1
0.22	B2
0.16	B3
0.074	B4
0.17	B5

biological target: T1, human CX3CR1; experiment: flow cytometry on CHO K1 huCX3CR1 cells, 30 uM HSA
Method: as §1, with “CHO cells overexpressing human or cynomolgus CX3CR1 were generated using techniques known in the art. Cells were harvested and resuspended in assay buffer (PBS, 2% FBS, 0.05% NaN3) and seeded separately in 384-well Bio-One V-bottom plates (Greiner, Cat. No. 781280), with a total of 2E04 cells seeded per well. After” for “After”

EC50 [nM]	top	Binder
0.36	50900	B1
0.22	41800	B2
0.46	28700	B3
0.63	28200	B4
0.17	14600	B5
